# Legend:
# [1] = tested on: malignant melanoma cells (HTB-69); test: FACS analysis of tumor cell binding; conditions: 20 min on ice
# Procedure: (§1) To analyze tumor cell binding, pancreas cancer cells (BXPC-3), stomach cancer cells (23132/87), lung carcinoma cells (A549) and malignant melanoma cells (HTB-69 and CRL-1424) were grown to subconfluency in complete medium, detached with Trypsin/EDTA and incubated on ice for 1 h for recreation. Tumor cells were subsequently incubated on ice with BARB4 antibody (diluted in PBS containing 0.01% sodium azide), or human isotype-matched control antibody (Chrompure human IgG, Dianova, Hamburg, Germany) for 20 min on ice. Following incubation, cells were incubated with a FITC-labeled rabbit anti-human IgG antibody (1:50, Dako, Germany) for 20 min on ice, and cells were analyzed by flow cytometry (FACScan; Becton Dickinson, USA).
# [2] = tested on: stomach cancer cells (23132/87); test: FACS analysis of tumor cell binding; conditions: 20 min on ice
# Procedure: as §1
# [3] = tested on: malignant melanoma cells (CRL-1424); test: FACS analysis of tumor cell binding; conditions: 20 min on ice
# Procedure: as §1
# [4] = tested on: Healthy Tissues: Esophagus; test: Immunohistochemistry (IHC) with biotinylated BARB4 on healthy tissue; assay type: binding, human; conditions: epithelial, positive/negative
# Procedure: (§2) Immunohistochemistry with human IgG on human tissue naturally results in high background staining. Accordingly, BARB4 was labeled with biotin to reduce background.
# (§3) BARB4 antibody and an unrelated commercial IgG control (Chrompure IgG, Dianova) where labelled with “EZ-Link Maleimide-PEO Solid Phase Biotinylation Kit” from Pierce (Cat-# 21930) and Immunohistochemistry was initiated on different tumor tissue. Parrafin embedded tissue was first deparaffinized by treatment with Xylene 1 for 5 min, Xylene 2 for 5 min, followed by 100% Ethanol 1 for 5 min, 100% Ethanol 2 for 5 min, 70 ml Methanol+500 μl H2O2 for 7 min, 90% Ethanol 1 for 3 min, 90% Ethanol 2 for 3 min, 80% Ethanol 1 for 3 min, 80% Ethanol 2 for 3 min, 70% Ethanol 1 for 3 min, 70% Ethanol 2 for 3 min, and then washed three times with distilled H2O. (1 and 2 mean that the tissues were treated 2 times with the same alcohol, one after the another, in two different tanks.) Tissue was then heated in Citric acid, pH 5,5 in a water-bath at 99.9° C. for 20 min, placed in Tris/NaCl (Tris, 0.6 g/l and NaCl 8.1 g/l, pH 7.4) for 5 min, block with 0.5% BSA in PBS for 60 min, and then washed three times with Tris/NaCl (Tris, 0.6 g/l and NaCl 8.1 g/l, pH 7.4). Primary antibody (150 μl per microscope slide) was added, or a negative control biotinylated isotype matched control human antibody (Chrompure IgG, Dianova, Germany) or a positive controlanti-cytokeratin antibody, and incubated for 30 min in a humidified chamber at 37° C. Tissue was washed three times with Tris/NaCl (Tris, 0.6 g/l and NaCl 8.1 g/l, pH 7.4). Secondary antibody: (150 […]) was subsequently added and incubated for 30 min in a humidified chamber at room temperature (for biotinylated antibodies: NeurtrAvidin 1:100 in PBS), washed three times with Tris/NaCl (Tris, 0.6 g/l and NaCl 8.1 g/l, pH7.4), placed in PBS for 10 min. Tiusse was subsequently incubated with diaminobenzidine (0.05%)-hydrogen peroxide (0.02%) (150 μl per microscope slide) (Sigma, Taufkirchen, München, Germany) for 10 min, washed three times with H2O, washed once with distilled H2O, incubated with hematoxylin/eosin for 5 min, and placed under running tap water 10-15 min. Tissue was then washed again with distilled H2O, and the slides covered with Aquatex (Merck Bioscience).
# [5] = tested on: Healthy Tissues: Breast; test: as above; assay type: binding, human; conditions: glandular, positive/negative
# Procedure: as §2, §3
# [6] = tested on: Healthy Tissues: Stomach; test: as above; assay type: binding, human; conditions: glandular, positive/negative
# Procedure: as §2, §3
# [7] = tested on: Healthy Tissues: Lung; test: as above; assay type: binding, human; conditions: glandular, alveolar, positive/negative
# Procedure: as §2, §3
# [8] = tested on: Healthy Tissues: Colon; test: as above; assay type: binding, human; conditions: glandular, positive/negative
# Procedure: as §2, §3
# [9] = tested on: Healthy Tissues: Pancreas; test: as above; assay type: binding, human; conditions: glandular, positive/negative
# Procedure: as §2, §3
molecule,measurement,setting,value
"BARB4: human IgG antibody produced by hybridoma DSMZ Deposit No. DSM ACC2876; heavy chain SEQ ID NOs:1, 3, 5, 7, light chain SEQ ID NO:9 (antibody, V domains shown) VH: QVQLVESGGGVVQPGRSLRLSCAASGFRFTTHGMHWVRQAPGKGLEWVAVISYNGRNKYYADYVNGRFTISRDDSRDTVFLQMNSLRPEDTAMYYCAKVRGDGYGDYGYFDYWGHGTLVSVSS VL: QSALTQPRSVSGSPGQSVTISCTGTYNYVSWYQQHPGKAPKLMIFDVSRRSSGVPDRFSGSKSGNTASLTISGLQAEDEADYYCCSYGGTYLYVFGTGTTVTVLGQ",tumor cell binding (FACS),[1],binds
same,tumor cell binding (FACS),[2],binds
same,tumor cell binding (FACS),[3],binds
same,Barb 4 +/−,[4],0/1
same,Barb 4 +/−,[5],0/2
same,Barb 4 +/−,[6],0/3
same,Barb 4 +/−,[7],0/3
same,Barb 4 +/−,[8],0/3
same,Barb 4 +/−,[9],0/2

# From patent US20090291083A1, “BARB4 TARGET, ANTIBODY DESIGNATED BARB4, BARB4 RELATED ANTIBODIES, AND METHODS OF MAKING AND USING SAME” (PATRYS LIMITED, priority 2008, published 2009)
